Data as given in the supplement of paper PMC9732359.
± gives the uncertainty stated by the source.

Test: protein stability index of a GFP-peptide fusion (yeast GPS) (PSI 1-4); higher = more stable; sorted into four equal gates, so the index is relative within each strain
Procedure, shortened: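 The protein stability index of a peptide was calculated by multiplying its read frequency in each gate by that gate's number and adding the products. The peptides were tiled 17-residue stretches of yeast proteins, fused downstream of GFP on a Cherry-expressing plasmid and carried in yeast as a pooled library. Mid-log cultures in leucine-free medium were sorted into four equal gates by GFP/Cherry ratio, and each gate's plasmids were PCR-amplified and Illumina-sequenced.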

| Sequence | protein stability index (doa10∆) | protein stability index (pdr5∆) | protein stability index (san1∆) | protein stability index (ubr1∆) |
| --- | --- | --- | --- | --- |
| DVNDVLTKYIRSKNLIF [GRR1] | 2.68 ± 0.066 | 2.78 ± 0.08 | 2.19 ± 0.083 | 2.68 ± 0.043 |
| PEETPLEELAETFQDTF [FAS2] | 3.11 ± 0.056 | 2.96 ± 0.062 | 3.12 ± 0.048 | 3.32 ± 0.059 |
| KMDFSSKEGQYKAKIKE [YIL149C/MLP2] | 3.2 ± 0.074 | 3.27 ± 0.071 | 3.17 ± 0.063 | 3.16 ± 0.048 |
| GQAIVVHPDYLYGAITE [FAS2] | 2.09 ± 0.034 | 1.88 ± 0.047 | 1.9 ± 0.048 | 1.79 ± 0.04 |
| EARLPSQVVWIRRLRVL [RPL19A] | 1.31 ± 0.072 | 1.63 ± 0.078 | 1.33 ± 0.11 | 1.44 ± 0.075 |
| VTNSPLFQTIEKLINNS [ECM29] | 2.73 ± 0.054 | 2.85 ± 0.058 | 2.76 ± 0.085 | 2.92 ± 0.066 |
| EATREVFGISKTSSGSY [ITC1] | 3.33 ± 0.09 | 3.09 ± 0.077 | 3.23 ± 0.068 | 3.29 ± 0.041 |
| FNVVDVGVDQLSIELEG [YJL039C/NUP192] | 3.49 ± 0.076 | 3.34 ± 0.058 | 3.29 ± 0.038 | 3.37 ± 0.049 |
| LECQLFPQGLNIVMDSK [SSN8] | 1.74 ± 0.2 |  |  | 2.46 ± 0.19 |
| KPNNTANTGGGLFGANS [YGL172W/NUP49] | 3.16 ± 0.14 | 3.28 ± 0.089 | 3.03 ± 0.072 | 3.08 ± 0.089 |
| LVLLELVSSGDRFIELI [YML103C/NUP188] | 2.56 ± 0.1 | 2.08 ± 0.07 | 2.21 ± 0.068 | 2.3 ± 0.088 |
| HRLKLCKSLISENEDTK [CSE2] | 2.91 ± 0.17 | 3.24 ± 0.27 | 2.42 ± 0.2 |  |
| IAGTFNVGKPDQSIASG [YOR098C/NUP1] | 3.14 ± 0.1 | 2.68 ± 0.18 | 2.96 ± 0.063 | 2.98 ± 0.082 |
| VPFIIAAMVIMHLMALH [COB] | 2.08 ± 0.055 | 1.31 ± 0.055 | 1.79 ± 0.16 | 1.43 ± 0.041 |
| QVLLDEEYKQLVKDRKF [RPO21] | 3.07 ± 0.085 | 3.28 ± 0.06 | 3.15 ± 0.14 | 2.82 ± 0.1 |
| NLQIRQLFNWCLMRSLH [DSN1] | 1.26 ± 0.092 | 1.19 ± 0.061 | 1.04 ± 0.17 | 1.12 ± 0.13 |
| AKLSDTLIIDQVRKDLG [NUT1] | 2.83 ± 0.11 | 2.32 ± 0.16 | 2.7 ± 0.13 | 2.85 ± 0.09 |
| LEIASSIDCLLILILVI [SWI1] | 1.98 ± 0.07 | 2.24 ± 0.046 | 2.34 ± 0.074 | 1.71 ± 0.035 |
| HLSHPGTNKDMILKLVC [ECM29] | 1.52 ± 0.049 | 1.45 ± 0.035 | 1.32 ± 0.09 | 1.91 ± 0.045 |
| LYNKIWTEASSSGAGTV [ECM29] | 2.12 ± 0.065 | 1.76 ± 0.058 | 2.12 ± 0.081 | 2.93 ± 0.08 |
| KAEKAEIRKRRASSLKA [RPS6A] | 2.9 ± 0.25 | 3.48 ± 0.11 |  | 3.06 ± 0.13 |
| TNEFVGSPSLTSPQYIP [NUT1] | 2.85 ± 0.057 | 3.04 ± 0.043 | 3.06 ± 0.035 | 2.93 ± 0.032 |
| NKVCRIEAASTTQDQCK [RPB8] | 2.66 ± 0.056 | 2.89 ± 0.07 | 2.63 ± 0.075 | 2.93 ± 0.063 |
| ALGMMTRISSQFEKSRK [RET1] | 1.39 ± 0.066 | 1.27 ± 0.09 | 1.37 ± 0.17 | 1.08 ± 0.06 |
| WAVTLDTSRPDLEWQEL [DSN1] | 3.35 ± 0.072 | 3.18 ± 0.065 | 3.13 ± 0.047 | 3.14 ± 0.033 |
| LSSYQKKIIKCDEHMGL [PRE5] | 2.19 ± 0.1 | 2.37 ± 0.13 | 2.19 ± 0.21 | 2.71 ± 0.22 |
| TEPDKPAFSFNSSVGNK [YJL041W/NSP1] | 3.14 ± 0.053 | 3.3 ± 0.04 | 3.09 ± 0.033 | 3.242 ± 0.029 |

| Sequence | protein stability index (doa10∆) | protein stability index (pdr5∆) | protein stability index (san1∆) | protein stability index (ubr1∆) |
| --- | --- | --- | --- | --- |
| LVDENTDYLYRRLHDEN [YCS4] | 2.68 ± 0.056 | 2.64 ± 0.048 | 2.68 ± 0.063 | 2.24 ± 0.034 |
| KLVTYIVKFKQKEEGRS [YLR335W/NUP2] | 3.1 ± 0.06 | 3.1 ± 0.067 | 3.33 ± 0.044 | 3.34 ± 0.051 |
| AVFKIVLQPLLPRELPK [SNU114] | 2.05 ± 0.083 | 1.76 ± 0.091 | 2.05 ± 0.095 | 2.18 ± 0.074 |
| IDDRDYVGNKRLELAGQ [RET1] | 3.22 ± 0.15 | 3.47 ± 0.11 | 3.05 ± 0.12 | 3.58 ± 0.13 |
| IDSFFLYVLPSFNIPRL [YMR129W/POM152] | 1.77 ± 0.05 | 1.57 ± 0.038 | 1.64 ± 0.093 | 1.26 ± 0.031 |
| HGMSVDPRHIQLLGDVM [RPO31] | 2.73 ± 0.057 | 2.82 ± 0.062 | 2.85 ± 0.049 | 2.98 ± 0.04 |
| GSNQKPKYEPPVQSKFG [RPT2] | 2.94 ± 0.13 | 3 ± 0.15 | 2.34 ± 0.22 | 3.09 ± 0.099 |
| QRFVGHKSDVMSVDIDK [ASC1] | 3.04 ± 0.095 | 3.06 ± 0.061 | 2.69 ± 0.082 | 2.96 ± 0.071 |
| APPQRPRFNRENKVSPA [RPS26A] | 3.38 ± 0.15 | 2.83 ± 0.17 | 3 ± 0.072 | 2.95 ± 0.12 |
| AYGNWFNGLKPLIQNSM [PRP8] | 2.94 ± 0.063 | 3.31 ± 0.099 | 2.85 ± 0.11 | 3.13 ± 0.049 |
| PWYNNPVSCIIQNDEEY [PRP8] | 1.88 ± 0.13 | 2.05 ± 0.094 | 2.43 ± 0.13 | 1.05 ± 0.12 |
| IKTVVLVPQLGHVGSVQ [PRP8] | 2.42 ± 0.056 | 2.47 ± 0.049 | 2.28 ± 0.063 | 2.35 ± 0.041 |
| HQGTPLGSHSSSQKDGN [REC8] | 3.21 ± 0.094 | 3.29 ± 0.093 | 2.88 ± 0.13 | 3.35 ± 0.089 |
| DTKIDQVNGNIRKVSND [SMC3] | 3.47 ± 0.16 | 3.07 ± 0.24 | 3 ± 0.12 | 3.27 ± 0.13 |
| TGGLFGAKPAGSTGGLG [YGL172W/NUP49] | 3.39 ± 0.13 | 3.42 ± 0.24 | 3.23 ± 0.1 | 3.54 ± 0.07 |
| ELLSSLEGKGSLEEIIA [RPP2B] | 2.27 ± 0.08 | 2.24 ± 0.061 | 2.63 ± 0.052 | 1.92 ± 0.064 |
| GPAAAKPMAFSNTTTHV [MTR3] | 3.06 ± 0.08 | 3.28 ± 0.052 | 3.39 ± 0.05 | 3.27 ± 0.036 |
| SGRCDGYILEGEELAFY [RPS8A] | 3.32 ± 0.12 | 3.44 ± 0.12 | 3.29 ± 0.093 | 3.36 ± 0.074 |
| KYREGQVLFQGLIYSFN [POP1] | 2.46 ± 0.12 | 2.11 ± 0.081 | 2.46 ± 0.065 | 2.42 ± 0.11 |
| FEEDEKNSDVWFLDHNY [RPN8] | 2.7 ± 0.077 | 1.73 ± 0.073 | 1.5 ± 0.14 | 1.48 ± 0.084 |
| KRIESLQKDLQRQKTYV [SMC1] | 3.01 ± 0.16 | 3.2 ± 0.13 | 2.85 ± 0.21 | 2.9 ± 0.15 |
| KPYVDRFAFSVIWELDD [DIS3] | 1.93 ± 0.046 | 1.98 ± 0.047 | 2.15 ± 0.05 | 2.38 ± 0.034 |
| IFFNIPLVAHLGLYVGV [YJL039C/NUP192] | 1.42 ± 0.044 | 1.4 ± 0.059 | 1.27 ± 0.1 | 1.33 ± 0.048 |
| GSVIQTHIAESAKEIAK [MCD1] | 2.91 ± 0.09 | 2.89 ± 0.08 | 3 ± 0.048 | 3.06 ± 0.058 |
| IDMLPMLLGTDLCSLKP [DIS3] | 2.74 ± 0.066 | 2.71 ± 0.065 | 2.69 ± 0.07 | 2.45 ± 0.057 |
| TSFGQPQSAPNQMGMGT [YOR098C/NUP1] | 2.81 ± 0.094 | 2.83 ± 0.18 | 2.9 ± 0.15 | 2.41 ± 0.17 |
